Experimental data from paper PMC8231724, “A Glycolipid Glycosyltransferase with Broad Substrate Specificity from the Marine Bacterium “Candidatus Pelagibacter sp.” Strain HTCC7211” (Applied and Environmental Microbiology, 2021).

Legend:
Experiment in all cases: LC-MS of glycolipid product, Hanes-Woolf plot
Type in all cases: biochemical, Candidatus Pelagibacter sp. HTCC7211
Conditions in all cases: acceptor C16:0/C18:1 DAG, no added Mg2+, Tricine-KOH pH 8.5, 35 °C, 2 mM DTT
[1] = substrate: O=c1ccn([C@@H]2O[C@H](COP(=O)(O)OP(=O)(O)O[C@H]3O[C@H](CO)[C@H](O)[C@H](O)[C@H]3O)[C@@H](O)[C@H]2O)c(=O)[nH]1
From the text: (§1) LC-MS of glycolipid product, Hanes-Woolf plot on GTcp

[2] = substrate: O=c1ccn([C@@H]2O[C@H](CO[P@@](=O)(O)O[P@@](=O)(O)O[C@H]3O[C@H](CO)[C@@H](O)[C@H](O)[C@H]3O)[C@@H](O)[C@H]2O)c(=O)[nH]1
From the text: as §1

[3] = substrate: O=C(O)[C@H]1O[C@H](OP(=O)(O)OP(=O)(O)OC[C@H]2O[C@@H](n3ccc(=O)[nH]c3=O)[C@H](O)[C@@H]2O)[C@H](O)[C@@H](O)[C@@H]1O
From the text: as §1

B1: GTcp (Candidatus Pelagibacter sp. HTCC7211) (protein)
chain: MKILIVTDAYYPQVNGVVRTLHETGEILKSQGHTIEYITPQQFLTVPMPKYNEIRLSLNVWPRVSNLINSIKPDAIHIATEGPLGFMARRHCIKKGLKFTTSFHTRFDKYIKLYMPIIPAKWSEKFLCNFHNKAERILVTTESMREELIALGVDNNKMVTWTRGGNHGAFKNPVKRDLPYKRPIWIYVGRVAVEKNIKAFLDLDLEGTKVIIGKGPNLNKLKKKYPNDYFLGEKTNGELASHFASSDVFVFPSKTDTFGIVVLESLSCGTPVAAYPVPGPKDILGGSKIDTLDQDLKTSALKALKVNREDCLEFAKKYSWEETARIFYNNISPN
notes: full length, 334 aa (1,005 bp), codon-optimised synthetic gene in pET22b, His-tagged, E. coli BL21-CodonPlus(DE3)-RIL, Ni-NTA and Superdex 200, 38 kDa monomer, about 70 kDa dimer
Km [1]: 32 ± 0.4 µM
kcat [1]: 0.0172 ± 0.005 s⁻¹
kcat/Km [1]: 537 ± 48.3 M⁻¹ s⁻¹
Km [2]: 82 ± 0.3 µM
kcat [2]: 0.0975 ± 0.00667 s⁻¹
kcat/Km [2]: 1190 ± 45 M⁻¹ s⁻¹
Km [3]: 68 ± 0.5 µM
kcat [3]: 0.0675 ± 0.00167 s⁻¹
kcat/Km [3]: 993 ± 60 M⁻¹ s⁻¹
